Measurements taken from patent US20140199709A1.

Biological target: human mast cell β-tryptase (human) (UniProt Q15661)
Assay: sandwich ELISA, luminescence (CSPD): rabbit anti-human tryptase coated as capture, human tryptase titrated, AP-labeled G3 as detection; EC50 is of the tryptase concentration

UniProt Q15661, sequence (Q15661 31-275 limits assumed): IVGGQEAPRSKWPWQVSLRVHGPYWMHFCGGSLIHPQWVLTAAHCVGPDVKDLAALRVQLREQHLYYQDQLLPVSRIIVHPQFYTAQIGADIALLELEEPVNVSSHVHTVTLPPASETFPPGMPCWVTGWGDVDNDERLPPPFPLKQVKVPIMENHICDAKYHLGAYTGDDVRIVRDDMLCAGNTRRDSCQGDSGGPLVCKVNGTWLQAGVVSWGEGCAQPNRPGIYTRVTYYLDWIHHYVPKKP

anti-tryptase antibody G3 (sc-33676; Santa Cruz Biotechnology, Inc.), alkaline phosphatase conjugated
EC50: 0.065 µg/mL
